From US20100144617

Legend:
[1] = target: T1, OXM2 (not fully specified)
T1 chain: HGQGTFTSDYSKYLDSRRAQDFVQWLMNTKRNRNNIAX

[2] = target: T2, Native porcine OXM, P01274
T2 chain: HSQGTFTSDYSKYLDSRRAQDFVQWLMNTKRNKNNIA

B1: recombinant soluble human DP-IV (protein)
chain: SRKTYTLTDYLKNTYRLKLYSLRWISDHEYLYKQENNILVFNAEYGNSSVFLENSTFDEFGHSINDYSISPDGQFILLEYNYVKQWRHSYTASYDIYDLNKRQLITEERIPNNTQWVTWSPVGHKLAYVWNNDIYVKIEPNLPSYRITWTGKEDIIYNGITDWVYEEEVFSAYSALWWSPNGTFLAYAQFNDTEVPLIEYSFYSDESLQYPKTVRVPYPKAGAVNPTVKFFVVNTDSLSSVTNATSIQITAPASMLIGDHYLCDVTWATQERISLQWLRRIQNYSVMDICDYDESSGRWNCLVARQHIEMSTTGWVGRFRPSEPHFTLDGNSFYKIISNEEGYRHICYFQIDKKDCTFITKGTWEVIGIEALTSDYLYYISNEYKGMPGGRNLYKIQLSDYTKVTCLSCELNPERCQYYSVSFSKEAKYYQLRCSGPGLPLYTLHSSVNDKGLRVLEDNSALDKMLQNVQMPSKKLDFIILNETKFWYQMILPPHFDKSKKYPLLLDVYAGPCSQKADTVFRLNWATYLASTENIIVASFDGRGSGYQGDKIMHAINRRLGTFEVEDQIEAARQFSKMGFVDNKRIAIWGWSYGGYVTSMVLGSGSGVFKCGIAVAPVSRWEYYDSVYTERYMGLPTPEDNLDHYRNSTVMSRAENFKQVEYLLIHGTADDNVHFQQSAQISKALVDVGVDFQAMWYTDEDHGIASSTAHQHIYTHMSHFIKQCFSLP
[1]
  loss of potency at hGLP-1R (cAMP HTRF) after preincubation with DP-IV: loss of potency due to preincubation of the peptides with DP-IV
[2]
  loss of potency at hGLP-1R (cAMP HTRF) after preincubation with DP-IV: loss of potency due to preincubation of the peptides with DP-IV
